Source: patent US7244707

Target: cation-independent mannose-6-phosphate (CIM6P) receptor, human (human) (UniProt P11717)
Assay: cell-based or functional assay

Sequence of UniProt P11717 (P11717 41-2491): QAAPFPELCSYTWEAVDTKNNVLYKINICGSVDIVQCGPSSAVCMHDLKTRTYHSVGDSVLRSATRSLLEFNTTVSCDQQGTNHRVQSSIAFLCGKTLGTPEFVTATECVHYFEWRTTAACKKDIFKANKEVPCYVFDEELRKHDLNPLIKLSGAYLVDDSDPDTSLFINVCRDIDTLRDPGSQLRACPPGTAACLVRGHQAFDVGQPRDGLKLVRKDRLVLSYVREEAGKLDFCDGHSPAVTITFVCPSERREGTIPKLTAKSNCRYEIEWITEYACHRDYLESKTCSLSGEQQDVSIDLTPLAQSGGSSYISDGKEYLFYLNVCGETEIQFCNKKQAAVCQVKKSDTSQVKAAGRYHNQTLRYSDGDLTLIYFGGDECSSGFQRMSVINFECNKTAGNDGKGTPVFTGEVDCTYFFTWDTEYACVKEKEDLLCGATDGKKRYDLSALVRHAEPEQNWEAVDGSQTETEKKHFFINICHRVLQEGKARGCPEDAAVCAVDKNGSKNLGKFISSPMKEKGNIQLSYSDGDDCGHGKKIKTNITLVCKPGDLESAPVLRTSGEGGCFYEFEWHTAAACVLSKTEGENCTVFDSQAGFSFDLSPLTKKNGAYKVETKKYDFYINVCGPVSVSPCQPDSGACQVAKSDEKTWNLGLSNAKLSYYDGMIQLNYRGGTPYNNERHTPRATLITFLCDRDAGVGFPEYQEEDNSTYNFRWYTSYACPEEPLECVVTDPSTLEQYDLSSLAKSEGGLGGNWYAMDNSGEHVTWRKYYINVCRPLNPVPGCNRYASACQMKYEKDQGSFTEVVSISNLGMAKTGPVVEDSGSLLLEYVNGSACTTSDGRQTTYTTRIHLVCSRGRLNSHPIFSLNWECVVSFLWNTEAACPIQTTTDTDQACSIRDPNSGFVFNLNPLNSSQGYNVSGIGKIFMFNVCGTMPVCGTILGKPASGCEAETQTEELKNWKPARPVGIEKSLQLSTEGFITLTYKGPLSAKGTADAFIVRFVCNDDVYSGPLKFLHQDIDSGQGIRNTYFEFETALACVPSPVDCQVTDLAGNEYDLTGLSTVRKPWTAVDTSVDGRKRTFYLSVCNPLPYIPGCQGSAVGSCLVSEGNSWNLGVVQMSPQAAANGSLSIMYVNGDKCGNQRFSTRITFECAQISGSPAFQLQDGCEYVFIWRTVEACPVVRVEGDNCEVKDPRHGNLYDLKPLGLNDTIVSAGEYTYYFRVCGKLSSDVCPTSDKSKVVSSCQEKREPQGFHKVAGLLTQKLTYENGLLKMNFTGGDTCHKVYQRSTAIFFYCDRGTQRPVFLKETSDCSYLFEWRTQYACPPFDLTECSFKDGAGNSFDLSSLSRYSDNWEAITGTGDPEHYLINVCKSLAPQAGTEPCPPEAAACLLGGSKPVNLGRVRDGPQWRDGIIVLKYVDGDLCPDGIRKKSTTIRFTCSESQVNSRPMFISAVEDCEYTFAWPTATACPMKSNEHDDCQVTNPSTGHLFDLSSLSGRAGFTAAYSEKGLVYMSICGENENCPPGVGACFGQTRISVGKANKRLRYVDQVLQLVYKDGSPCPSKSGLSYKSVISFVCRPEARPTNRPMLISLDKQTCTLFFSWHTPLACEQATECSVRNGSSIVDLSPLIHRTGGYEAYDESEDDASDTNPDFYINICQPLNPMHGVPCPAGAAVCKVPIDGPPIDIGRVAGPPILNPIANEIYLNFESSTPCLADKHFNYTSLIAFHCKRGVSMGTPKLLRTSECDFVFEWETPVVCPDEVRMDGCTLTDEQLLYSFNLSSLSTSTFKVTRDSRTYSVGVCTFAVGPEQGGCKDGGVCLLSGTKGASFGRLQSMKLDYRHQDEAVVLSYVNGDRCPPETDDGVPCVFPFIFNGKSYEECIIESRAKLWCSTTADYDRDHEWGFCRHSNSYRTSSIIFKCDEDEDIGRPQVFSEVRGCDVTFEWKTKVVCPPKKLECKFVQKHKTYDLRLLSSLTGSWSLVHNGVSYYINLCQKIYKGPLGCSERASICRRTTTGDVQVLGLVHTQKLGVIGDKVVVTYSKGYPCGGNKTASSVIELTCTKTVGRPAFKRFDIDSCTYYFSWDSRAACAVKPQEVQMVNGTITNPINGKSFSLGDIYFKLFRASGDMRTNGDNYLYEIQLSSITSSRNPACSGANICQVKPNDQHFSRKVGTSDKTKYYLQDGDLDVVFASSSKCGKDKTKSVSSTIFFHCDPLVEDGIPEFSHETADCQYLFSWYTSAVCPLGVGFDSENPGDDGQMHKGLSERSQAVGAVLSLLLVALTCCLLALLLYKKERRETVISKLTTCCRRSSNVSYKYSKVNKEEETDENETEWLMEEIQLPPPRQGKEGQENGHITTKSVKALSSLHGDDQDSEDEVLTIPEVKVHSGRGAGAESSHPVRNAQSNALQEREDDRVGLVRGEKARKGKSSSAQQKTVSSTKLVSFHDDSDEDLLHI

Substance: Leu^27IGF-II (receptor grade) (from UniProt P01344 25-91) (ligand)
- Active TGF -1 as % Control (TF1 monocytes, TGF-1 ELISA), 25 nmol/L Leu^27-IGF-II: 12.7 % Control
